We go through eight molecules from paper PMC8537277 (Pharmaceuticals, 2021).

In one experiment the target is H1N1 hemagglutinin (Cat No.: Z03181, GenScript), full-length recombinant HA (His-Tag) (influenza A virus H1N1 (strain not stated)). As to the kind of experiment: MST; fluorescently labelled His-HA (NT647-HA) held constant, peptide in 16 1:1 serial dilutions from 50 µM; assay buffer PBS; 10 min incubation at rt; standard-treated capillaries; high MST power, 10% LED power; Monolith NT.115pico; triplicate.
Consider Ac-ALDC-NH2 [peptide 7 (Ac-ALDC-NH2)], for which the equilibrium dissociation constant (Kd) – broadly, the equilibrium constant for the complex coming apart – stood at 21.2 µM.
Take Ac-SADC-NH2 [peptide 8 (Ac-SADC-NH2)]: the Kd came to 6.38 µM.
On the same count and under the same terms, the figure for Ac-SAHS-NH2 [peptide 4 (Ac-SAHS-NH2)] is 0.0082 µM.
On the same count and under the same terms, under Ac-SKAS-NH2 [peptide 5 (Ac-SKAS-NH2)] stands 7.01 µM; under Ac-SLDA-NH2 [peptide 10 (Ac-SLDA-NH2)], 2.69 µM.
Regarding Ac-SKHA-NH2 [peptide 6 (Ac-SKHA-NH2)], the dissociation constant Kd is 11.4 µM.
Still for that read-out and setting: the figure for Ac-SLAC-NH2 [peptide 9 (Ac-SLAC-NH2)] is 0.0058 µM.
Turning to Ac-AKHS-NH2 [peptide 3 (Ac-AKHS-NH2)], the dissociation constant (Kd) came to 3.12 µM.

The target is the same in the next experiment. As to the kind of experiment: SPR. A general note: In SPR one partner is held on a chip, and binding of the other changes the refractive index at the surface.
Take Ac-ALDC-NH2 [peptide 7 (Ac-ALDC-NH2)]: the Kd came to 0.0277 µM.
The same measure, in the same setting: under Ac-SADC-NH2 [peptide 8 (Ac-SADC-NH2)] stands 2.19 µM; under Ac-SAHS-NH2 [peptide 4 (Ac-SAHS-NH2)], 0.0035 µM.
On the same count and under the same terms, under Ac-SKAS-NH2 [peptide 5 (Ac-SKAS-NH2)] stands 1.03 µM; under Ac-SLDA-NH2 [peptide 10 (Ac-SLDA-NH2)], 0.343 µM; under Ac-SKHA-NH2 [peptide 6 (Ac-SKHA-NH2)], 6.75 µM.
On to Ac-SLAC-NH2 [peptide 9 (Ac-SLAC-NH2)], for which the Kd worked out at 2.57 µM.
The same measure, in the same setting: under Ac-AKHS-NH2 [peptide 3 (Ac-AKHS-NH2)] stands 2.7 µM.

For another experiment the target is unchanged. As to the kind of experiment: SPR. The source holds these as a separate data set.
For Ac-SAHS-NH2 [peptide 4 (Ac-SAHS-NH2)], the Kd stood at 0.00357 µM.
